Here are results for 16 sequences from the DeepSol protein solubility set.

This series can be described thus: soluble on expression in E. coli; label from the status in PepcDB or PDB records.
“MSGGSDQVKNMIYINGNRRGHCFITSGITFKEFASNIPSPLHQVLLLKHNFEWTDFHYHTLFEYVEEENIHKLIQAEIDEFDEFCWVDFDDASDLDELEPKEIAELLYLAHKKEPLARTFFPLLKNRFVYFSHDDGWYNKVYYRRIADFVGMLSKVIPYKLGAFGKKRFSFFQKSKIFPAISKELIMGLIPLMEDGLYIDLAGKIESRRGLEIPVYVVGSYESTDEVLDNIDELKEEATETGWLIFDKKEQEWQWVVD”: the “soluble on expression in E. coli” value is reported as “not soluble”.

On to “MLIQIDSNVLFANVDTLGNIVSTTTNGIGSAGKTTLDGHYSSISGFDQLGASHGAVIKGGIGSAMKTMQQLTEQVNWLKEALNSSRLAFSSQNNFVSRGMDIADEGGNVGGEEVVFPNRPDVVYEDFSFPQPVVQKASSIDELAAAFASTNDSEVEEAVATWKSLSEMATETSQDLRNVAAEVGEHNHGAVFDKAVERIGEIAANAESFAANASTMANHVGLMSQLKTMRMSDVLSAQQALSKIEDPMERKVLEEEFLSRLQSAIQSDVGQSVPVIRNLVTMRSTGGNSGQSIATGMETIAGNGKFSHTGLSSASGATLQPATMGQHPDNLGDFAAVNSRTGQSIDPFSLSTQQAGWTSPDFQPSAGGSSGLNPIKAPLTSAHSSMPASAQTVSTHPSSATGLGVTPIGPRADAMAMYPSANSKPHNSGLNGTSKIGGSSIAQLGASPQSGVSRSAAFGAAGTQSAHSARMSPMMGAPMGAAGSKKRGKTKSVTSSVEEDNNIAALLGESPAVVPGVIGSWVRG”, for which the “soluble on expression in E. coli” value is “not soluble”. The entry for “MEHEQHSSINDILHHYKEGIGSFTNQIPEIAETYNAFTQACFQEGALTKREKQLIALGISLATQDEYCTIYHTKGCLDQGCSDKEILEACGVSAAFAGGAAMSQAVTLVQECLTELKNQKH” is “not soluble”; for “MGSDKIHHHHHHMSSPLLTMRGIRKSYAGVHALVDGNLDLERGQIHALCGGNGAGKSTILGILMGFTRPDCGEIRIEGKPVSFANPTQALQAGIAIVQQELSGVPHLTVAENIYLGAEPRRRGFVDFPQLNRQAEELLASLGFDIDPRVPLASLSIASQQLIEIAKALSRRDADILIFDEPTSAIGEKDTLRLFEVLRDLAAAGKGIIYVTHRLAEVFTIADSYTVFKDGARIETGRVADITREKLIESMIGGAIEGEYVKENVPSDRPLLDVRGLSRAPWFDRVSFTLHAGEILGIYGLVGSGRSQLLDTIYGLYPADAGTVWVEGREIRPGRVRAALGAGISYVTEDRKHSGLVLCASVGDNLSLSQLPHIQRFGFIRTALERAGIDDSIAKMRIKTPGPEQIVRNLSGGNQQKVVFGRCTSIGPKVLLLDEPTRGVDVGAKKEIYRFVSDFTKAGGAVLMVSSELDEITGMSDRIIVIKKGAHVAEFPREETTQKALMMAAV” it is “not soluble”; for “MGSDKIHHHHHHMTESEKQKLGKTLWAIADQLRGAMNADDFRDYMLAFLFLRYLSDNYEAAAQKELGTDYPDLPSDVLRQTGVNTPLQAWYEENLDDVSEFEKQMRRKVHYVIEPQYLWGNIAEMARTQDDELLHTLQKGFKYIEEESFASTFRGLFSEINLASDKLGKTYTERNARLCKIIAEIAKGLGQFSTDSDTLGDAYEYLIGQFAAGSGKKAGEFYTPQRISDILSAIVTLDSQEPATGKRSHLDSVFDFACGSGSLLLNVRRLMGPHGIGKIYGQEKNITTYNLARMNMLLHGVKDSEFEIFHGDTLLNEWDMLRETNPAKMPKFDAVVANPPFSYRWEPSEALGEDVRFKNYGLAPKSAADFAFLLHGFHFLKQDGVMAIILPHGVLFRGGAEARIRTKLLKDGHIDTVIGLPANLFFSTGIPVCILVLKKCKKPDDVLFINAAEHFERGKRQNQLLPEHIDKIIDTYRYRKEEPRYSRRVSMEEIEKNDFNLNISRYVSTAITEEEVDLNAVIGQLKAIEQEIYQAKSKHNEFLKELGLPLLP” it is “not soluble”. In the case of “MSLSDHKIDRIRVHRVLIPGKAVHSHGIGDVAGIHAVILEVITDTGLTGWGEASPWPAFTGTAEGTVAALYTYLRPHLIGQDPVQVERHMRDAEALVVGHPEAKAALEMALLDLTGQISGLSVCELVGGRMRDDMGLSFSVANPDFGKDLEDVAAMWAEGVRIFKIKTGFKSHGFDLMRLEKLRGIYGAEADLRIDYNQGLPAYDAVRCIRDLEAFRPTFVEQPVKMHERDALAHIAHVIETPIMADESVFGVREALHGVQIRMADIFSLKVMKSGGIRRALEVSAIARAAGIEVYGGCMFETGLAHAAGAHLMAALPELRLDCEFYMSTYYASEDILTEPFPVRGGRVHVPEGPGLGVAVDPAMLAKYAQAEALGEGHHHHHH”, the “soluble on expression in E. coli” value is recorded as “soluble”. Take “DLADRFAELERRYDARLGVYVPATGTTAAIEYRADERFAFCSTFKAPLVAAVLHQNPLTHLDKLITYTSDDIRSISPVAQQHVQTGMTIGQLCDAAIRYSDGTAANLLLADLGGPGGGTAAFTGYLRSLGDTVSRLDAEEPELNRDPPGDERDTTTPHAIALVLQQLVLGNALPPDKRALLTDWMARNTTGAKRIRAGFPADWKVIDKTGTGDYGRANDIAVVWSPTGVPYVVAVMSDRAGGGYDAEPREALLAEAATCVAGVLA”: the “soluble on expression in E. coli” value is “soluble”. With “MRNVLKAETLERKFPLLSVENGCIVSKDADLTVAFEVELPELYTVTAEEYEAMHSTWIKAARVLPEHSIVCKQDWFTKESYRPQNGGEEQSFLSRSYERHFNERPYLNHRCFLYLTKTTRERNRRQSDFSTLCRGFLLPREITDKDMAARFLEAVEQFEHIVNDSGHIRLRRLETEEITGTRERPGLVEKYLSLSMEDETAVLQDICLKPGRMRIGDKRLCLHTLSDTEDLPGKLSTDMRYERMSTDRSDCRLSFAAPVGLLLSCNHIYSQYVFIDNAQKILQMMEKNSRNMLSLSQYSRSNAVNQEWTEMYLDEAHTKGVLPVRCHCNVIAWAEDAEEFRRIRNDTGSQLAMMECTPRYNTVDTPVLYWAGIPGNAGDFPAEESFYTFLEQAVCLFAGETNYRSSPSPFGIRMADRQNGIPVHVDISDLPMKRGIITNRNKFILGPSGSGKSFFTNHLVRNYYEQGAHILLVDTGNSYQGLCRMIHERTRGGDGIYITYEEDNPISFNPFYTDSGQFDVEKRESIKTLILTLWKREDEAPKRSEEVALSGAVNAYIRKITENREARPDFNGFYEFVDGDYRRMIAEKKVREKDFDIDGFLNVLEPFYKGGDYDFLLNSDRELDLTNRRFIVFELDNISGNKVLLPVVTLIIMETFIAKMRRLKGIRKVILIEECWKALMSANMSGYIQYLFKTVRKYFGEAVVVTQEVDDIISSPIVKEAIINNSDCKILLDQRKYMNKFEHIQRLLGLTEKEKSQILSINQANHPGRFYREVWIGLGGTRSAVYATEVSAEEYFTFTTEESEKLEVQRLAEELDGNLELAIRRMAERKREEQRQVSIPKREQ”, the “soluble on expression in E. coli” value is reported as “not soluble”.

Consider “MFRREIQERENWRELARQFGFGFHSMYGQPYWDESAYYQFTLEQIEHDLESPTEELHQMCLSIVDEVVRCEQLLTKCAIPELMWEQVASSWQRKEPSLYSRLDFAYNGTSPAKLLENNADTPTSLFETGFWQWVWLEDVVNKGRIHQAADQFNILQDFLIERFAEIAKYQPGQTLHFSCCKYTEEDKATVQYLEDCAREVGLATAFVYVEDIGVTEDGKFVDVDRRAIRWMFKLYPWEFMFEEEYAKYLATANVNWLEPMWKSILSNKALLPLLWERFPNHPNLLPAYFANDPNASCLNDYVIKPLFSREGANIEIVKDGKRLVKTPGPYESKFNIVQKYHPLPKFGQNHTLIGSWLVNDRAAGISIREDSSLVTQDMARYIPHVILT”, for which the “soluble on expression in E. coli” value is listed as “not soluble”.

As for “MFTKRHRITLLFNANKAYDRQVVEGVGEYLQASQSEWDIFIEEDFRARIDKIKDWLGDGVIADFDDKQIEQALADVDVPIVGVGGSYHLAESYPPVHYIATDNYALVESAFLHLKEKGVNRFAFYGLPESSGKRWATEREYAFRQLVAEEKYRGVVYQGLETAPENWQHAQNRLADWLQTLPPQTGIIAVTDARARHILQVCEHLHIPVPEKLCVIGIDNEELTRYLSRVALSSVAQGARQMGYQAAKLLHRLLDKEEMPLQRILVPPVRVIERRSTDYRSLTDPAVIQAMHYIRNHACKGIKVDQVLDAVGISRSNLEKRFKEEVGETIHAMIHAEKLEKARSLLISTTLSINEISQMCGYPSLQYFYSVFKKAYDTTPKEYRDVNSEVML”, the “soluble on expression in E. coli” value is “soluble”. “MSQPIYKRILLKLSGEALQGEDGLGIDPAILDRMAVEIKELVEMGVEVSVVLGGGNLFRGAKLAKAGMNRVVGDHMGMLATVMNGLAMRDSLFRADVNAKLMSAFQLNGICDTYNWSEAIKMLREKRVVIFSAGTGNPFFTTDSTACLRGIEIEADVVLKATKVDGVYDCDPAKNPDAKLYKNLSYAEVIDKELKVMDLSAFTLARDHGMPIRVFNMGKPGALRQVVTGTEEGTTICLEHHHHHH”: the “soluble on expression in E. coli” value is “not soluble”. Consider “MGSDKIHHHHHHMELCTTICVDLAKQVFQLAGEDATGRVIYEDRIKSRQAFHDFLLRLPTTVAVLMECGPGAQAWARLLQAKGNPVRILPAQRVAEHRSGAKNDRNDCYAILRAGRDTSIASIPIKSTTALAIQALHRIRRGNIKRHTALGNQIRGLLLEHGVSMPQGDAAINKHVPRALEDASLPLPDLLRELLDELLMDWLSLGERITALSRRLEATAQEDKVAQRLITIRGVGPIIATAIVAKQTDPSRFASGRMYSAFFGIVPDQHSSGNKIRLGKMSKRGDGYIRSLMIQGAHSVLSQLRPDSDQPDDRRLLRWLSRLGRKEAAIRLANRNLRIIWALLQSDQVYQRKPNEKPEAAMSL”, for which the “soluble on expression in E. coli” value is listed as “not soluble”. Next, “MSLWHGVIVATSLPFDDDLSVDFGAYGESVAHLAAQGMHGVAPNGSLGEYQTLTYEERDRVVETAVANAPEGFTVMPGVGAYGGREAERHARFAKDAGCQAVMCLPPNAYRADDRAVLQHFERVASVGLPVTAYNNPIDTKVDLRPDLLAKLHAEGYIVGVKEFSGDVRRCYEISELAPGLDLMIGTDDTVLEVALAGAKGWVAGYPQVFPRACLALYEASVRGDLEAALPLYRQLHPVLRWDSKTEFVQAIKLGQELTGRRGGPCRPPRQPLAPETEAVVRAATQALVDAGVNEGHHHHHH”: “soluble”; “MTQISERLLVQAHLDAKQPNPLTAEQEAEYRAAIAAELKAQNAVLVAHYYCDPVIQALAEETGGCVSDSLEMARFGKNHPAETVIVAGVRFMGETAKILTPEKRVLMPTLEATCSLDLGCPVEEFSAFCDQHPERTVVVYANTSAAVKARADWVVTSSCALEIVESLMDNGETIIWGPDQHLGRYIQKQTGADMLLWDGACIVHEEFKSRQLADMKALYPDAAILVHPESPEAVIELADAVGSTSQLIKAAQTLPNKTFIVATDRGIFYKMQQLCPDKEFVEAPTAGNGAACRSCAHCPWMAMNTLERVLDCLRNGTNEIFVDPALVPKAIKPLNRMLDFTQAARLKLSGNALEHHHHHH”: “not soluble”; “NSMAEFQYNLNLEEEKKQLEIENLCFENMKKQMEFTRRARHDLKHHMKAVHTMAENNECKKITEYIETYLEHVSLKKPLVYCTNFTLNALIVYYVQQAEAHKIKLKLNIELPEETNVKEADLTVLFGNLLENAIDACDEVQENKRYINLKIYKPNSDSIVFYIENGFNGSIKKKNQQFLTTKANGNGIGIESVKYVVHKYNGDVNIKTDENKFIVSGVLLQPLDATK”: “not soluble”. With “MGHHHHHHGGHMSLSTKAKQQSSQQMTRGFEPYQETKGEEYMSERMRAHFTAILNKWKQELMEEVDRTVHHMQDEAANFPDPADRASQEEEFSLELRARDRERKLIKKIDETLQLIEDEEYGWCDSCGVEIGIRRLEARPTATLCIDCKTLAEIREKQLGSEGGS”, the “soluble on expression in E. coli” value is “soluble”.
